{"source": "paper PMC4539566", "target": "fibronectin (Fn) isolated from human plasma, as manually pulled single Fn fibres (human) (UniProt P02751)", "sequence (P02751 32-2477)": "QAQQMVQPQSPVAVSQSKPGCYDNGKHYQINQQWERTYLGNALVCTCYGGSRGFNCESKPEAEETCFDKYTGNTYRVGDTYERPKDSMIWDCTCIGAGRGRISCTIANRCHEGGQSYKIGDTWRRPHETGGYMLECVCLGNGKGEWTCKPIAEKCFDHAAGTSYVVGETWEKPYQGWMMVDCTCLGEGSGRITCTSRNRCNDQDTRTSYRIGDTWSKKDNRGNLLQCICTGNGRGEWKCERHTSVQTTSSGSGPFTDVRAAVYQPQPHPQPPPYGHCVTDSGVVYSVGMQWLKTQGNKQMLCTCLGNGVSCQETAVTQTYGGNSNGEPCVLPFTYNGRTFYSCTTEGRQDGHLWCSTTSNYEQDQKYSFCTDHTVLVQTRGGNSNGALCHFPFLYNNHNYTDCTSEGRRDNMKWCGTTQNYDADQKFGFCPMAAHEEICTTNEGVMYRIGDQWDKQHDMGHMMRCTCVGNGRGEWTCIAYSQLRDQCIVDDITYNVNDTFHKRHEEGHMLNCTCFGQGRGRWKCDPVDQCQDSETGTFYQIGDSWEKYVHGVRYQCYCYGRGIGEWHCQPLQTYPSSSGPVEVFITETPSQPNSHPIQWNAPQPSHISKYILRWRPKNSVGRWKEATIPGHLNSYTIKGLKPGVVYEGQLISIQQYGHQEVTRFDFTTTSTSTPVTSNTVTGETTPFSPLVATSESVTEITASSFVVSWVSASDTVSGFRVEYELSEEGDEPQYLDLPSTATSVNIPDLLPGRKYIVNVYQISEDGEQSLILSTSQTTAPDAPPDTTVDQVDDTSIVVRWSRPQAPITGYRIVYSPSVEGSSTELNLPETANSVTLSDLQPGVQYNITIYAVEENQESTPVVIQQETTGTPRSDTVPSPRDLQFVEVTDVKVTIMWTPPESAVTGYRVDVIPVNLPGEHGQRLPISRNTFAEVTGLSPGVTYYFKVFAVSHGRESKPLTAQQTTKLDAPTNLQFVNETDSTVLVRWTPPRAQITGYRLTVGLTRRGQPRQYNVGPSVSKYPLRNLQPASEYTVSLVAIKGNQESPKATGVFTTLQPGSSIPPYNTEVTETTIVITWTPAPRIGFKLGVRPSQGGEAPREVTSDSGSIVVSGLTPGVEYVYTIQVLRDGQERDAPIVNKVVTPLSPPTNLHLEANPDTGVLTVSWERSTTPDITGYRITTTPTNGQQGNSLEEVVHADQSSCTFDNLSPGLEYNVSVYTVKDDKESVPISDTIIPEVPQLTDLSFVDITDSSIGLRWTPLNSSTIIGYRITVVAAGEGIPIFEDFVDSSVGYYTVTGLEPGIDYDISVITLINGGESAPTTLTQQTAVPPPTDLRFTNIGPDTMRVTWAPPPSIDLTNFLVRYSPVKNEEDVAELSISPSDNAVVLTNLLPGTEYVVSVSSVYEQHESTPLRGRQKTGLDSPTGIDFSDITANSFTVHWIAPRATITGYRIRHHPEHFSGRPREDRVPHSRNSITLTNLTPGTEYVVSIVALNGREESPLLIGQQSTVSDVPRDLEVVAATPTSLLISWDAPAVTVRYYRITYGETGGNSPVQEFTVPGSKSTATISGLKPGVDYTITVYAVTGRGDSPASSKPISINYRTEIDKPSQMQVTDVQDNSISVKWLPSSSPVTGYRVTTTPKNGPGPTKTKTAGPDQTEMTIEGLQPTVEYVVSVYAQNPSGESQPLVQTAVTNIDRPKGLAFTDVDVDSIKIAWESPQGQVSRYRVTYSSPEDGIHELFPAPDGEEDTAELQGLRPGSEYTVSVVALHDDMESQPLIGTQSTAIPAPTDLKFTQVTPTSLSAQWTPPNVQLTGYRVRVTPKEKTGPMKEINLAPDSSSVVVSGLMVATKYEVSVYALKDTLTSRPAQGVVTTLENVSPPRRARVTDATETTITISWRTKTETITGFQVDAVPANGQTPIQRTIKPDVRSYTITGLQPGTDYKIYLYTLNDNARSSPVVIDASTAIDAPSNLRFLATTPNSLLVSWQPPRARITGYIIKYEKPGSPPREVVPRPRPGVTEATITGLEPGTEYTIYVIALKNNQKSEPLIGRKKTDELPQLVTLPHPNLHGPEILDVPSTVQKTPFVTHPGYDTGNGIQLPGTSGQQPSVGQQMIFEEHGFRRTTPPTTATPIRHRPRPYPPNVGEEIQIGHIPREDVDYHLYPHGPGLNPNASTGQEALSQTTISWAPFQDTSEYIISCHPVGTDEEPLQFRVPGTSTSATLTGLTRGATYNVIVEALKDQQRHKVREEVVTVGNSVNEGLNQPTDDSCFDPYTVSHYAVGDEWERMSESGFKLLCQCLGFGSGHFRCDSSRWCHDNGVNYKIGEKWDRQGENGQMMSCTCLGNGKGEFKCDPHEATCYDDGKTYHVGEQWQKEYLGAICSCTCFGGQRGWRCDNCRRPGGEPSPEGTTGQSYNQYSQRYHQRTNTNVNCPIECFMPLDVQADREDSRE", "assay": "fluorescence microscopy of a labelled peptide on single Fn fibres (fibre stretch assay); Fn fibres (10% Fn-Alexa647) held across PDMS trenches in a uniaxial strain device, relaxed or stretched (40%, 140%, 380% absolute strain); blocked with 4% BSA 30 min; incubated with CLP-Alexa488 30 min, rinsed and imaged in PBS; CLP-Alexa488/Fn-Alexa647 intensity ratio normalised to the 140% strain point"}
{"substance": "synthetic collagen peptide (CLP) derived from the Fn-binding region of the α1 chain of type I collagen (residues Q778-G799), with a terminal cysteine", "values": [{"measurement": "drop of the CLP/Fn intensity ratio from low to high Fn fibre strain", "result": 52, "unit": "%"}]}
